Assay results: article doi:10.1101/2021.08.20.457118 (bioRxiv, 2021)

Target: linear di-Ub (M1-linear from UbiQ) (UniProt P0CG47)
Assay: SPR

B1: His-tagged Ufd2p (enzyme)
chain: MTAIEDILQITTDPSDTRGYSLLKSEEVPQGSTLGVDFIDTLLLYQLTENEKLDKPFEYLNDCFRRNQQQKRITKNKPNAESLHSTFQEIDRLVIGYGVVALQIENFCMNGAFINYITGIVSNVNSYTDFLSQIIQRAILEGTALDLLNAVFPTLLEYCNKHVSHFDLNESVIYNNVLTIFELFVTFKPIAEIFTKIDGFFADYSCKPQDFERKTILGPILSLSPIEAAVAIRNYGDNLLRSKQQTAMIHESLQAEHKVVIDRLFFIVDKLVRGSLNSRTDMISYFAHIANKNHLRRADHPPFKELSSNGFMSNITLLLVRFSQPFLDISYKKIDKIDANYFNNPSLFIDLSGETRLNSDFKEADAFYDKNRKTADSKPNFISDCFFLTLTYLHYGLGGTLSFEEKMGSEIKALKEEIEKVKKIAANHDVFARFITAQLSKMEKALKTTESLRFALQGFFAHRSLQLEVFDFICGASTFLIRVVDPEHEFPFKQIKLPLIPDQIGVENVDNADFLRAHAPVPFKYYPEFVVEGPVNYSLYISKYQTSPIFRNPRLGSFVEFTTMVLRCPELVSNPHLKGKLVQLLSVGAMPLTDNSPGFMMDIFEHDELVNKNLLYALLDFYVIVEKTGSSSQFYDKFNSRYSISIILEELYYKIPSYKNQLIWQSQNNADFFVRFVARMLNDLTFLLDEGLSNLAEVHNIQNELDNRARGAPPTREEEDKELQTRLASASRQAKSSCGLADKSMKLFEIYSKDIPAAFVTPEIVYRLASMLNYNLESLVGPKCGELKVKDPQSYSFNPKDLLKALTTVYINLSEQSEFISAVAKDERSFNRNLFVRAVDILGRKTGLASPEFIEKLLNFANKAEEQRKADEEEDLEYGDVPDEFLDPLMYTIMKDPVILPASKMNIDRSTIKAHLLSDSTDPFNRMPLKLEDVTPNEELRQKILCFKKQKKEEAKHKASE
Does B1 bind?
Result: binds
